# Data taken from patent US20020137677A1.
# Experiments:
# Assay in all cases: cell-based or functional assay
# [1] = molecular target: mouse zalpha11 receptor, on cells (mouse)
# [2] = molecular target: human zalpha11 receptor, full-length, on cells (human) (UniProt Q9HBE5)
# [3] = molecular target: human zalpha11 Ligand (human) (UniProt Q9HBE4)
# Chain of UniProt Q9HBE4 (Q9HBE4 32-162 limits assumed, form in doubt): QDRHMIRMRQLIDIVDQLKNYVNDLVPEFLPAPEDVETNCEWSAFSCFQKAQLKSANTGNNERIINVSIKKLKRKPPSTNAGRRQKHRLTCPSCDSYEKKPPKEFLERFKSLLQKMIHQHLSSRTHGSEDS
# Chain of UniProt Q9HBE5 (Q9HBE5 20-538 limits assumed): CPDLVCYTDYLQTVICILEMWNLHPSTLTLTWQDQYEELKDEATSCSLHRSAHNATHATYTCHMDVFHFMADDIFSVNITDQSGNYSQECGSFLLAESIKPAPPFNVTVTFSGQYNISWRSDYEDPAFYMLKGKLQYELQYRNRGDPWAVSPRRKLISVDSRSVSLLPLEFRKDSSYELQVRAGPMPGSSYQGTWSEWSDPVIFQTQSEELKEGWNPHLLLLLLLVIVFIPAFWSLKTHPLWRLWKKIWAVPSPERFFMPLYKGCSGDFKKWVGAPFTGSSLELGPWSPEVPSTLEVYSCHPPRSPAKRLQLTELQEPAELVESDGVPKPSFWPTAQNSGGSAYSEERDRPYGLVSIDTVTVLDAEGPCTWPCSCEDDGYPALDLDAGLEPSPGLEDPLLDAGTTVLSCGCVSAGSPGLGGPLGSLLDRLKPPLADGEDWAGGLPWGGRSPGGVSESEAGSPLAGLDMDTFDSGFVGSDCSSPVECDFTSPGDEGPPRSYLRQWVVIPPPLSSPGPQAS
STAT luciferase reporter response of untransfected BaF3/KZ134 control cells [1],STAT luciferase reporter response of BaF3/KZ134/Zalpha11 cells (fold over media-only control) [2],proliferation of BaF3/Zalpha11 cells (Alamar Blue) (fold over background) [2],"inhibition of BaF3/zalpha11 proliferation (Alamar Blue), concentration completely inhibiting 3 ng/ml human zalpha11 Ligand [3]",potency in inhibiting human zalpha11 Ligand relative to the homodimeric soluble zalpha11 receptor (zalpha11-Fc4) [3],Substance
5 fold,40,5,,,mouse zalpha11 Ligand
,,,0.312 µg/mL,30 to 100 fold,soluble human zalpha11 receptor/human IL-2Rγ receptor heterodimer (hzalpha11/IgGγ1 + hIL-2Rγ/human κ light chain) (Fc fusion)
